# Assay: yeast display, Sf9 membrane polyspecificity reagent, FACS + sequencing; frameworks hold sequencing errors
# In short: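 Polyreactivity labels are assigned by the sorting gate from which each nanobody was recovered. The gates were low and high (top ~1%), set on anti-HA fluorescence for expression and streptavidin fluorescence for reagent binding. Before sorting, galactose-induced (36–48 hours) yeast display cells were stained for 1 hour at 4 °C with 10% biotinylated, detergent-solubilized Sf9 membrane reagent.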
row,Sequence,polyreactivity (PSR sort gate)
1,QVQLVESGGGLVQAGGILRLSCAASGNILRFNARGWYRPAPGKEMELVAAISRSGGTTYYADSEKGRFTISRDYAKNTVYLQMNSLKPEDTAVYYCADRYRYGESPGYYWGHGTQVTVSS,high polyreactivity
2,QVQLVESGGGLVQAGGILRLSCAASGRIFGSYAMGWYRQAPGKERELVAVITKRGDSTYYADSVKGRFTISRDNAKNTVYLQMNSLKPEDTAVYYCNARVYPGYSFWAVFGYDYWGQGTQVTVSS,low polyreactivity
3,QVQLVESGGGLVQAGGILRLSCAASGRIFHRYTMGWYRQAPGKEREFVAAITTRAGSTYYADSVKGRFTISRDNAKYTVYLQMNSLKPEDTAVYYCNIRRHSLFGGTTTRYDYWGQGTQVTVSS,high polyreactivity
4,QVQLVESGGGLVQAGGILRLSCAASGRIFLTYAMGWYRQAPGKERELVAAIRSRSGTTYYADSVKGRFTISRDNAKNTVYLQMNSMKPEDTAVYYCAAGGKSRSYYWGQGTQVTVSS,high polyreactivity
5,QVQLVESGGGLVQAGGILRLSCAASGRIFRGYAMVWYRQAPGKERELVAAISNGGGTNYADSVKGRFTISRDNAKNTVYLQMNSLKPEDTAVYYFATGFLQNYYKYTSSFRFYYWGQGTQVSVSS,high polyreactivity
6,QVQLVESGGGLVQAGGILRLSCAASGRIFVLNPMGWSRQAPGKERELVAASSGSGSRTYYADSVKGRFTISRDNAKNTVYLQMNSLKPEDTEVYYCNTVSRRSEHTYDYWGQGTQVTVSS,high polyreactivity
7,QVQLVESGGGLVQAGGILRLSCAASGRIFYVNAMGWYRQAPGKERELVATIRRGGDTNYADSVKGRFTISRDNAKNTVYLQMNSLNPEDTAVYYCAAKAYQSSYQRYYWGQGTQVTVSS,high polyreactivity
8,QVQLVESGGGLVQAGGILRLSCAASGRITFSHNTMGWYIQAPGKERELVAAISSGGRTNYADSVKGRFTISRDNAKNTVYLQMNSLKPEDTAVYYCARESHYDFIYDGMDYWGQGTQVTVSS,low polyreactivity
9,QVQLVESGGGLVQAGGILRLSCAASGRTFAPYTMGWYRQAPGKERELVAVITRRDGRTYYADSVKGRFTISRDNAKNTFYLQMKSLKPEDNAVYYCCFLPADWYRPVRYLRTDSDYWGQGTKVTVSS,low polyreactivity
10,QVQLVESGGGLVQAGGILRLSCAASGRTFFSNAMGWYRQAPGKEREFVAAISNGDNTYYADSVKGRFTISSDNAKNTVYLQMNSLKPDDTAVYYCAADQYWSWIYYPVVEYDYWGLGTQVTVSS,low polyreactivity
11,QVQLVESGGGLVQAGGILRLSCAASGRTFNSYAMGWYRQAPGKERELVAAISWIGGSTYYADSVKGRFTISRDNAKNTVYLQMNSLKPEDTAVYYCAADSYRFYSGYYYWGQGTQVTVSS,low polyreactivity
12,QVQLVESGGGLVQAGGILRLSCAASGRTFYSNAMGWYRQAPGKARELVAAISRSGGRTYYADSVKGRFTISRDNAKISVYLQMNSLKTEDTAVYYCNKVRQNSSMDYWGQGTQVTVSS,high polyreactivity
13,QVQLVESGGGLVQAGGILRLSCAASGSIFPFYAMGWYRQAPGKERELVATISWSGGRTYYADSVKGRFTISRDNANNTVYFQMNSLKPEVTAVYYCAAQSYDYWYDYDYWGQGTQVTVSS,high polyreactivity
14,QVQLVESGGGLVQAGGILRLSCAASGSIFSFYAMGWYRQAPGKERELVAAITRSGGTYYADSVKGRFTISRDNAKNTVYLQMNSLKPEDTAVYYCAAQYWYYYIWWEYYYWGQGTQVTVSS,low polyreactivity
15,QVQLVESGGGLVQAGGILRLSCAASGSIFTRYAMGWYRQAPGKEREFVAAITWRGGRTSYADSVKGRFTISRDKAKNTVYLQMNSLKPEDTAVYYCNRRYPYRTYDYWGQGTQVTVSS,high polyreactivity
16,QVQLVESGGGLVQAGGILRLSCAASGSIFYAYAMGWNRQAPGKEAEFVARISGSGGSTYYADSVKGRFTISRDNAKNTVYLQMNSLKPEDTAVYYCAATRERYKYYKRYYWGQGTQVTVSS,low polyreactivity
17,QVQLVESGGGLVQAGGILRLSCAASGSIIVYNSMVCYRQAPGKERELVARITGRGGRTYYADSVKGRFTISRDNAKNTVYLQMNSLKPEDTAVYYCAKYGYWGQGTQVTVSS,high polyreactivity
18,QVQLVESGGGLVQAGGILRLSCAASGSIYYAMGWYRQAPGKERELVAGINSSGSTNYADSVKGRFTISRDNAKNTVYLQMNSLKPEDTAVYYCAARAIVSFDYWGQGTQVTVSS,low polyreactivity
19,QVQLVESGGGLVQAGGILRLSCAASGSNFAPYAMGWYRQSPGKERELVATISASGGTTYYADSVKGRFTISRDTAKNTVYLQMNSLKPEDTAVYYCNADSNWYYLGNYYGLNDYWGQGTQVTVSS,low polyreactivity
20,QVQLVESGGGLVQAGGILRLSCAASGSTFYQYAMGWYRQAPGKERELVAAITRGGRTYYADSVKGRFTISRDNAKNTVYLQMNSLKPEDTAVYYCAAGYRTAYRGSSYYYWGQGTQVTVSS,high polyreactivity
21,QVQLVESGGGLVQAGGILRLSCAASGSTSYIYAMGWYRQAPGKERELVAAITWRTGRTYYADSVKGRFTISRDNAKNTVYLQMNSLKPEDTAVYYCAATYYLSFAVKMYYWGQGTQVTVSS,high polyreactivity

row,Sequence,polyreactivity (PSR sort gate)
1,QVQLVESGGGLVQAGGILRLSCAPSGSTFTFYAMGLYRQAPGKERELVAAINSSGGRTYYADSVKGRFTISRDNAKNTVYLQMNSLKPEDTAVYYCAARRPLVRYIMGYWGQGTQVTVSS,high polyreactivity
2,QVQLVESGGGLVQAGGILRLSCASSGRIFTRYAMGWYRPAPGKEREFVAAINYRGSSTYYADSVKGRFTISRDNAKNTVYLQMNSLKPEETAVDYCNTYGQTDTYWRYYYWGQGTQVTVSS,high polyreactivity
3,QVQLVESGGGLVQAGGILRLSCASSGRTFRYYAKGWYRQAPGKERELVATISKSGGSTYYADSVKGRFTISRDNAKNTVYLQMNRLKPEDTAVYYCAAVGPYRWYDYWGQGTQVTVSS,high polyreactivity
4,QVQLVESGGGLVQAGGILRLSCDASGRIFYTYAMGWYRHGPGQERELVAAISRSGTSTYYADSLKGRFTIARDNEKNHVYLQMNSLKPEDTAVYYCAIYKRLPDYGYWGQGTLVTVSS,high polyreactivity
5,QVQLVESGGGLVQAGGILRLSCDASGSIFVYNAMGWYRQAPGKERELVAGITFIGGSTYYADSVKGRFTISRDNAKNTVYLQMNSLKPEDTAVYYCNADVAPGIFYGYDSWGQGTQVTVSS,low polyreactivity
6,QVQLVESGGGLVQAGGILRLSCPASGRTFEYYAMGWYRQAPGKERELVASISFGGGSTYADSVKGRFTISRDNAKNTVYLQMNSLKPEDTAVYYCAATGGWYKHWFDYWGQGTQVTVSS,low polyreactivity
7,QVQLVESGGGLVQAGGILRLTCAASGRTNTYNAMGSYRQAPGKERELVAAITWSGGSTYYADSVKGRFTISRDNAKNTVYLQMNSLKPEDTAVYYCAKEFYYSSGFDYWGQGTQVTVSS,low polyreactivity
8,QVQLVESGGGLVQAGGILSLSCAASGSTFVGNAMGWYRPAPGKERELVATISNSGGRTYYADSVKGRFTISRDNAKNTVYLQMNSLKPEETAVYYCAADPPAFGPGYSFDYWGHGTQVTVSS,low polyreactivity
9,QVQLVESGGGLVQAGGILSLSCADSGRIFDIYAMGWYRQAPGKERELVASISWSGDSTYYADSVKGRFTISRDNAKNTVYLQMNSLKPEDTAVYYCDAVGEDTEGYDFDYWGQGTQVTVSS,low polyreactivity
10,QVQLVESGGGLVQAGGNLRLSCAASGLIFWYNAMGWYRQAPGKERELVAAINWSGDSTYYADSVKGRFTISRDNAKNTVYLQMNSLKPEDTAVYYCAATEQSYGYDYWGQGTQVTVSS,low polyreactivity
11,QVQLVESGGGLVQAGGPLRLSCAASGIIFGFYAMGWYRQPPGKERELVADITSSGGSTYYADSVKGRFTISRDNAKNTVYLQINSLKPEDTAVYYCAADGVPGGPPVEGMDYWGQGTQVTVSS,low polyreactivity
12,QVQLVESGGGLVQAGGRHRLSCAASGRTFGVYAMGWYRQAPGKEREFVGVISWSDDSTYYADSVKGRFTISRDNAKNTVSLQMNSLKPEDTAVYYCNADDYLVYSGSHYGYWGQGTQVTVSS,low polyreactivity
13,QVQLVESGGGLVQAGGRHRLSCAASGSIFTVYTIGWYRQAPGKEREFVAAINSRGGTTYYADSVKGRFTISRDNAKNTVYLQMNSLKPEDTAVYYCAAKQRPKSYGPGHYYWGQGTQVTVSS,high polyreactivity
14,QVQLVESGGGLVQAGGRHRLSCAPSASIFSVNAMGWYRQAPGKERELVAAISWRGASTYYADSVKGRFTISRDNPKNTVYLQMNSLKPEDTAVYYCAAKGTGGDQYYAFDYWGQGTQVTVSS,low polyreactivity
15,QVQLVESGGGLVQAGGRLLLSCAASGGTFRVYAMGWYIQAPGKERELVASISWSSGITYYADSVKGRFTISRDNAKNTVYLQMNSLKPEDTAFYYCAAEGHVTYGAPGRLYRMGYWGQGTQVTVSS,low polyreactivity
16,QVQLVESGGGLVQAGGRLRFSCAASGRIFYSYTMGWYRQAPGKERELVASISRSSGDTYYADSVKGRFTISRDNAKNPVYLQMNSLKPEDTAVYYWAARIKTYSKRYYWGQGTQVTVSS,high polyreactivity
17,QVQLVESGGGLVQAGGRLRISSAASGFIFYVNAKGWYRQAPGKERELVAAISWSGGSTYYADSVKGRFTISRDNAKNTVYLQMNSLKPEDPAFYYCAAGASPYEGYDNWGQGTQVTVSS,low polyreactivity
18,QVQLVESGGGLVQAGGRLRLICAASGFIFWKNAMGWYRQSPGKQRELVAAISTRGGSTYYADSVKGRFTISRDNAKNSVYLQMNSLKPEDTAVYYCNKEWYQYKHNYWGQGTQVSVSS,low polyreactivity
19,QVQLVESGGGLVQAGGRLRLICAASGRTSRIYAMGWYRQAPGKWELVAAISGSGSRTYYADSVKGRFTISRDNAKNTVYFQMNSLKPEDTAVSYCNARYWYRHHPPEFDYWGQGTQVTVSS,high polyreactivity
20,QVQLVESGGGLVQAGGRLRLICAASGSILNNYAMGWYRQAPGKERELVAAISSSGGTNYADSVKGRFTISRDNAKNTVYLQMNSLKPEDTAVYYCNADVLDGGYDYWGQGTQVTVSS,low polyreactivity

# — the nanobody polyreactivity screen of Harvey et al. (2022)
